Sequences and labels used below:
B1: Acetyl-CoA carboxylase carboxyltransferase subunit AccA (enzyme)
chain: MSLNFLDFEQPIAELEAKIDSLTAVSRQDEKLDINIDEEVHRLREKSVELTRKIFADLGAWQIAQLARHPQRPYTLDYVRLAFDEFDELAGDRAYADDKAIVGGIARLDGRPVMIIGHQKGRETKEKIRRNFGMPAPEGYRKALRLMQMAERFKMPIITFIDTPGAYPGVGAEERGQSEAIARNLREMSRLGVPVVCTVIGEGGSGGALAIGVGDKVNMLQYSTYSVISPEGCASILWKSADKAPLAAEAMGIIAPRLKELKLIDSIIPEPLGGAHRNPEAMAASLKAQLLADLADLDVLSTEDLKNRRYQRLMSYGYA
B2: Acetyl-CoA carboxylase carboxyltransferase subunit AccD (enzyme, E. coli, UniProt P0A9Q5 1-304, looked up)
chain: MSWIERIKSNITPTRKASIPEGVWTKCDSCGQVLYRAELERNLEVCPKCDHHMRMTARNRLHSLLDEGSLVELGSELEPKDVLKFRDSKKYKDRLASAQKETGEKDALVVMKGTLYGMPVVAAAFEFAFMGGSMGSVVGARFVRAVEQALEDNCPLICFSASGGARMQEALMSLMQMAKTSAALAKMQERGLPYISVLTDPTMGGVSASFAMLGDLNIAEPKALIGFAGPRVIEQTVREKLPPGFQRSEFLIEKGAIDMIVRRPEMRLKLASILAKLMNLPAPNPEAPREGVVVPPVPDQEPEA

The target in one assay is Biotin carboxylase AccC (E. coli, UniProt P24182 1-449). Nature of the assay: SEC. For orientation: In gel filtration, larger molecules generally elute earlier.
Assay [1] concerns the target B1. The assay can be described thus: cryo-EM structure.

Broadly, the stoichiometry N is a count of units in the complex or per binding partner. Turning to B1, the “stoichiometry N” value in the assay with Biotin carboxylase AccC is around 1. For B2, in assay [1], the binding result is recorded as “binds”. In addition, the “stoichiometry N” value with Biotin carboxylase AccC is around 1.

(Values after publication PMC11160672 (bioRxiv, 2024).)
